According to article PMC3878766 (2010):

Biological target: T1, Tolloid-like 1 (TLL-1) (Homo sapiens, UniProt O43897)
T1 chain: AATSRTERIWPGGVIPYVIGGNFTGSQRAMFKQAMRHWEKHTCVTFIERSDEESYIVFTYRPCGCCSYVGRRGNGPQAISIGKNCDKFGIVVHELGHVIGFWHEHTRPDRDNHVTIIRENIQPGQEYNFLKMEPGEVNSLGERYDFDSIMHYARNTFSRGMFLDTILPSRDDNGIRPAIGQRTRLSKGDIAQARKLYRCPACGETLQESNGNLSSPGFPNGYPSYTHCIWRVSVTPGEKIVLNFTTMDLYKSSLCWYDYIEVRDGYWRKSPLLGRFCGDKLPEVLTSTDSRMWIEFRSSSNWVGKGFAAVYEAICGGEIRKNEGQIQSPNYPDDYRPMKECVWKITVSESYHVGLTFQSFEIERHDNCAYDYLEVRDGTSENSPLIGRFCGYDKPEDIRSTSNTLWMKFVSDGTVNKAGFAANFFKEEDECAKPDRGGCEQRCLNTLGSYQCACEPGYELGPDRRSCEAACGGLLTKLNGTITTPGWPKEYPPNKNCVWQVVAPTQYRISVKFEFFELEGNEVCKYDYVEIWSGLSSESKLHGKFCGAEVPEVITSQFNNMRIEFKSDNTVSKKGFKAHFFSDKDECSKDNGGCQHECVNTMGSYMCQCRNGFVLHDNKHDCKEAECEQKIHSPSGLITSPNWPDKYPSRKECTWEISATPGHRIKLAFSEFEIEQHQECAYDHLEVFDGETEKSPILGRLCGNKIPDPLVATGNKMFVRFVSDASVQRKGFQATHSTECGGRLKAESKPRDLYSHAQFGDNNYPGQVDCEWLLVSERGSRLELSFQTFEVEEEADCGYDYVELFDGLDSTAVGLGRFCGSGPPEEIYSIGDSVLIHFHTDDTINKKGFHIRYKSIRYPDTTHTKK
Test: sedimentation equilibrium AUC

Kd: 2 nM
B1: Tolloid-like 1 (TLL-1) (protein)
chain: T1 chain
modifications: Ca2+ (0.5 mM CaCl2), V5-His6 tag
